# From article PMC3828182
# Columns and labels:
# [1] = target: FLAG-tagged HPV51 chimera 4 L2 (Ch4L2-FLAG) (human papillomavirus type 51, Ma strain | human papillomavirus type 51, Nu strain) (UniProt P26539)
# [2] = target: FLAG-tagged HPV51 chimera 5 L2 (Ch5L2-FLAG) (human papillomavirus type 51, Ma strain | human papillomavirus type 51, Nu strain) (UniProt P26539)
substance,measurement,setting,value
transport protein particle complex subunit 8 (TRAPPC8) (from UniProt Q9Y2L5 1-1435) (natural protein),percent of HeLa cells GFP-positive by flow cytometry after inoculation with HPV51 PsV containing the (untagged) Ch4L2 and a GFP-expression plasmid,[1],4%
same,percent of HeLa cells GFP-positive by flow cytometry after inoculation with HPV51 PsV containing the (untagged) Ch5L2 and a GFP-expression plasmid,[2],80%
